Laboratory results taken from patent US20060003330A1, “Streptococcus pneumoniae pbp2x mini-protein and uses thereof” (COMMISSARIAT A L'ENERGIE ATOMIQUE CENTRE NATIONAL DE LA …, priority 2002, published 2006).

Assay: Solubility of purified mini-PBP2x (concentration without precipitating)
Type: physicochemical
Settings: purified protein

B1: Mini-PBP2x: Modified recombinant protein derived from PBP2x of β-lactam-sensitive S. pneumoniae strain R6, with deletions in the n-PB domain replaced by Gly linkers (protein, listed as Streptococcus pneumoniae)
chain: GSGAKRGTIYDRNGVPIAEDATSGGPNRSYPNGQFASSFIGGGMESSLNSILAGGGGDGKDVYTTISSPLQSFMETQMDAFQEKVKGKYMTATLVSAKTGEILATTQRPTFDADTKEGITEDFVWRDILYQSNYEPGSTMKVMMLAAAIDNNTFPGGEVFNSSELKIADATIRDWDVNEGLTGGRTMTFSQGFAHSSNVGMTLLEQKMGDATWLDYLNRFKFGVPTRFGLTDEYAGQLPADNIVNIAQSSFGQGISVTQTQMIRAFTAIANDGVMLEPKFISAIYDPNDQTARKSQKEIVGNPVSKDAASLTRTNMVLVGTDPVYGTMYNHSTGKPTVTVPGQNVALKSGTAQIADEKNGGYLVGLTDYIFSAVSMSPAENPDFILYVTVQQPEHYSGIQLGEFANPILERASAMKDSLNLQTTAKALEQVSQQSPYPMPSVKDISPGDLAEELRRNLVQPIVVGTGTKIKNSSAEEGKNLAPNQQVLILSDKAEEVPDMYGWTKETAETLAKWLNIELEFQGSGSTVQKQDVRANTAIKDIKKITLTLGD
- solubility (can be concentrated without precipitating): ≥ 15 mg/mL
